For one assay, the target named is T1, human COCO (R&D) (human, UniProt Q8N907 23-189, limits assumed).
T1 sequence (looked up): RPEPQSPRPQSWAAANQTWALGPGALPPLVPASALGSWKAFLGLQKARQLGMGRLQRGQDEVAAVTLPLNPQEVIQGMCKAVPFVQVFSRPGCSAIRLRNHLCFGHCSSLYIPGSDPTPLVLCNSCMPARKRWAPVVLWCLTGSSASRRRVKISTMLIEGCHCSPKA
Put plainly: ELISA on coated human COCO (R&D, 0.5ug/ml), anti-mouse IgG-HRP. The procedure: In addition, the specificity of the binding of 14E3 and a benchmark antibody was assessed with ELISA. Briefly, clear polystyrene plates (BEAVER) were coated with 100 μl/well of a […] hGREM1 (ACRO), or human gremlin-2 (R&D), human COCO (R&D) and human DAN protein (R&D) in high pH coating buffer overnight at 4° C. Then the plates were washed once on an automatic plate washer using PBS+0.1% Tween 20 (Sigma). 100 μl of block solution consisting of PBS+1% BSA+1% normal goat serum+0.5% Tween 20 (Sigma) was added to each well and incubated at room temperature for 2 hours. Then 100 ul of antibodies in antibody dilution buffer containing PBS+1% BSA+1% normal goat serum+0.01% Tween 20 starting from 2 μg/ml and then 5 fold serial dilution were added to each well of the plate and incubated for 1 hours at room temperature. Afterward the plates were washed three times with 200 ul of PBS+0.1% Tween20 followed by adding 100 μl/well 1:10000 Goat anti mouse IgG-HRP (Abcam), and incubate for 1 hour at room temperature. They were then washed 3× with PBS+0.1% Tween20. Finally, 100 µl/well of TMB (Pierce) was added to each well and after 5 minutes add 50 ul of stop solution to each well. The plates were read on a Multiscan FC microplate reader (Thermo Scientific) at […].
(In general: An ELISA detects its analyte on a solid surface through an enzyme-linked reagent.)

The target of assay [1] is T2, HGREM1-His (ACRO) (human, UniProt O60565 25-184).
T2 construct: Lys25-Asp184 of NP_037504 with C-terminal polyhistidine tag (ACRO GR1-H52H3); they are put here; also called hGREM1 (ACRO); human gremlin (ACRO)
T2 sequence: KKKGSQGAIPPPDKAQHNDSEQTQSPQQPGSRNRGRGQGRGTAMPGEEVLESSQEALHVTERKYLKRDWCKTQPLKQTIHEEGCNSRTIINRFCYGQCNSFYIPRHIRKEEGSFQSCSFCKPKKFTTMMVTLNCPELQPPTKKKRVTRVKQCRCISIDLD
Put plainly: blocking ELISA, Human Gremlin-1 binding to FGFR1. Here is the method:
Next, 0.25 μg/ml of gremlin was selected to test the blocking activity. The ability of antibodies to block Gremlin binding to human FGFR1-Fc was examined via ELISA. Plates were coated with recombinant FGFR1-Fc (2 μg/ml) overnight and then serial dilutions of antibodies were incubated with 0.25 μg/ml of human Gremlin-his modified for 1 h at RT before this complex was added to coated plates and allowed to incubate for an additional hour at RT. The plates were then washed and added with anti-his HRP (GenScript). Plates were then developed with a TMB solution and stopped by adding stop solution. The plates were read on a plate reader at 450 nm. […] Humanized anti-GREM1 antibodies provided herein (e.g., Hu14E3, Hu22F1) are expected to show the similar technical effect as their chimeric counterparts in blocking the binding of hGREM1 to FGFR1.

A further assay deals with T3, Mouse Gremlin-His (R&D) (mouse, UniProt O70326 25-184).
T3 construct: Lys25-Asp184 with 10xHis, R&D 956-GR; also called mouse gremlin (R&D); mGREM1
T3 sequence: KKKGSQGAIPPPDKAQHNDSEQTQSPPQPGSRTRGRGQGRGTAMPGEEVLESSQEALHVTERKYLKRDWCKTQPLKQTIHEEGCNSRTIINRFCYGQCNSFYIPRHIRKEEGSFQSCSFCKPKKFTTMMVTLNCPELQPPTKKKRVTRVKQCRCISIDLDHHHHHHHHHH
The assay is described as follows: ELISA, coated mouse gremlin (R&D). Here is the method: Clear polystyrene plates (BEAVER) were coated with 100 μl/well of a […] hGREM1 (ACRO) and mouse gremlin (R&D) in high pH coating buffer overnight at 4° C. Then the plates were washed once on an automatic plate washer using PBS+0.1% Tween 20 (Sigma). 100 μl of block solution consisting of PBS+1% BSA+1% normal goat serum+0.5% Tween 20 (Sigma) was added to each well and incubated at room temperature for 2 hours. Then 100 μl of antibodies in antibody dilution buffer containing PBS+1% BSA+1% normal goat serum+0.01% Tween 20 starting from 2 μg/ml and then serial dilutions were added to each well of the plate and incubated for 1 hours at room temperature. Afterward the plates were washed three times with 200 μl of PBS+0.1% Tween20 followed by adding 100 μl/well 1:10000 Goat anti mouse IgG-HRP (abcam), and incubate for 1 hour at room temperature. They were then washed 3× with PBS+0.1% Tween20. Finally, 100 µl/well of TMB (Pierce) was added to each well and after several minutes add 50 μl of stop solution to each well. The plates were read on a Multiscan FC microplate reader (Thermo Scientific) at […].

Assay [2] concerns the target T2, HGREM1-His (ACRO). Put plainly: blocking ELISA, Human Gremlin-1 binding to BMP7; column Percentage. Here is the method: In addition, the ability of serial dilutions of antibodies provided herein to block Gremlin binding to human BMP2/4/7 was also examined via ELISA. Plates were coated with recombinant human BMP2/4/7 (0.5 μg/ml) overnight and then serial dilutions of antibodies were incubated with 1 μg/ml of human Gremlin-his modified for 1 h at RT before this complex was added to coated plates and allowed to incubate for an additional hour at RT. The plates were then washed and added with anti-his HRP (GenScript). Plates were then developed with a TMB solution and stopped by adding stop solution. The plates were read on a plate reader at 450 nm. […] The chimeric anti-gremlin 1 antibodies (69H5-chi) and chimeric anti-gremlin 1 antibodies (22F1-chi) also can inhibit the binding of gremlin to BMP2 and BMP4 (see, FIG. 3E and FIG. 3F). The chimeric anti-gremlin 1 antibodies (56C11-chi) can inhibit the binding of gremlin to BMP2 (see, FIG. 3E).

Among the data in patent publication US20240294622A1 (SUZHOU TRANSCENTA THERAPEUTICS, published 2024) are binding result, IC50 and EC50 values, retold here.

B1: 14E3 (antibody, V domains shown)
VH: QIQLVQSGPELKKPGETVKISCKTSGSTFTTYGMAWMKQAPGKGLTWMGWINTLSGEPTYADDFKGRFAFSLKTSANTAYLQINNLKNEDAATYFCAREPMDYWGQGTSVIVSS
VL: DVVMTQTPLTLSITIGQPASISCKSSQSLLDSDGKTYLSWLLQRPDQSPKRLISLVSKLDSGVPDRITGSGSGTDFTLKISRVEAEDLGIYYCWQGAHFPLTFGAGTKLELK
notes: mouse hybridoma antibody; also called hybridoma 14E3; anti-gremlin1 antibody 14E3
As for B1, the binding result with human COCO (R&D) is “no binding (tested: 1 ug/ml)”.

B2: 36F5 (antibody, V domains shown)
VH: QVQLQQSGAELARPGASVKLSCKASGYSFTSSGIGWVKQRSGQGLEWIGEIYPRSGNTYNNEKFKGKATLTADKSSSTVYMELRSLTSEDSAVYFCVREAYSHHYYAMDYWGQGTSVTVFS
VL: DVLMTQTPLSLPVSLGGQASISCRSSQSLLHSNGNTYLEWYLQKPGQSPKLLIYKVSNRFSGVPDRLSGSGSGTDFTLKISRVEAEDLGVYYCFQGSHVPFTFGSGTKLEIN
notes: mouse hybridoma antibody; also called hybridoma 36F5
As for B2, the IC50 in the assay with HGREM1-His (ACRO) [1] came to 1.84 µg/mL; in the assay with HGREM1-His (ACRO) [2] it was 0.683 µg/mL. The same molecule registered an EC50 with Mouse Gremlin-His (R&D) of 0.00456 µg/mL.

One may read the IC50 as the concentration that gives 50% inhibition. A low value points to inhibition by little substance. Broadly, the EC50 is the midpoint of the concentration-response curve. Read a high EC50 as weaker potency.
